We go through six molecules from patent US20100209435 (published 2010).

The target of one assay is T1, CHO hOPGL 140 (human, UniProt O14788).
T1 chain: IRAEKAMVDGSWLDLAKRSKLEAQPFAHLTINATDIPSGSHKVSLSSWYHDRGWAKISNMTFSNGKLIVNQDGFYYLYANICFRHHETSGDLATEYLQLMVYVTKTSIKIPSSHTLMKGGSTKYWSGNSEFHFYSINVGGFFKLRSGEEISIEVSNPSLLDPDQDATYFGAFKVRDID
The assay is described as follows: SPR. (In SPR one partner is held on a chip, and binding of the other changes the refractive index at the surface.)

For assay [1], the target named is T2, FLAG-murine OPGL[158-316]/DE (mouse, UniProt O35235).
T2 chain: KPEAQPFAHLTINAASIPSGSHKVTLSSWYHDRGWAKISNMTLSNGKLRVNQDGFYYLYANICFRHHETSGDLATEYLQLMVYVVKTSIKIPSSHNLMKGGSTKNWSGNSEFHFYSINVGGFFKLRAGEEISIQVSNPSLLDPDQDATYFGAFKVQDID
The assay is described as follows: ELISA. Background: In an ELISA, binding on a coated surface is turned into a signal by an enzyme label.

For assay [2], the target named is T3, E. coli mOPGL 158 (mouse, UniProt O35235).
T3 chain: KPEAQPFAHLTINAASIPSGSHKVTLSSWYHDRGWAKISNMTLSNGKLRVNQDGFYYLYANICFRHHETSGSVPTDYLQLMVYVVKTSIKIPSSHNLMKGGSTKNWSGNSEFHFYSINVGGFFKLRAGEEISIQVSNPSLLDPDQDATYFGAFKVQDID
Put plainly: ELISA.

For assay [3], the target named is T3, E. coli mOPGL 158. The assay is described as follows: SPR.

B1: 18B2 (antibody, V domains shown)
VH: EVQLVQSGGGLVHPGGSLRLSCVGSRFTFSAYPMHWVRQAPGKGLEWVSGIGSGGGTNYADSVKGRFTISRDTAKNSLYLQMNSLRAEDMAVYYCARGRNSFDYWGQGTLVTVSS
VL: DIQMTQSPSSLSASVGDRVTITCRASQGISTWLAWYQQKPEKAPKSLIYAASSLQSGVPSRFSGSGSGTDFTLTISSLQPEDFATYYCQQYNSYPPTFGQGTKVEIKR
By Kd is commonly meant a measure of binding affinity in units of concentration. A high value points to weaker binding. In turn, B1 returned a Kd in the assay with CHO hOPGL 140 of 0.211 nM. Besides, the binding result (in assay [1]; with E. coli mOPGL 158 [2]) was “no binding” each time.

B2: 2E11 (antibody, V domains shown)
VH: EVQLVQSGGDLVHPGGSLRLSCVGSGFTFSHYPLHWVRQAPGKGLEWISGIHTGGGTYYTDSVKGRFTISSDNAKNSLYLQMNTLRAEDMAVYYCARGRNSFDYWGQGTLVIVSS
VL: DIQMTQSPSSLSASVGDRVTITCRASQGISSWLAWYQQKPEKAPKSLIYAASSLQSGVPSRFSGSGSGTDFTLTISSLQSEDFATYYCQQYNSYPPTFGQGTRLEIKR
Take B2: in the assay with CHO hOPGL 140, the Kd stood at 0.292 nM. Also, the binding result (in the assay with E. coli mOPGL 158 [3]; in assay [1]) was “no binding” throughout.

B3: 2D8 (antibody, V domains shown)
VH: EVQLVQSGGGLVHPGGSLRLSCAGSGFTFSSYGMHWVRQAPGKGLEWVSGIGTGGGTYYADSVKGRFTISRDNVKNSLYLQMNSLRAEDMAVYYCARKNWGWFDYWGQGTLVTVSS
VL: EIVLTQSPATLSLSPGERATLSCRASQSISSYLAWYQQKPGQAPRLLIYDASNRATGIPARFSGSGSGTDFTLTISSLEPEDFAVYYCQQRSKWPPYTFGQGTKLEIKR
In turn, B3 registered a Kd with CHO hOPGL 140 of 0.092 nM. Also, the binding result with E. coli mOPGL 158 [2] is “no binding”.

B4: 9H7 (antibody, V domains shown)
VH: EVQLVQSGGGLVHPGGSLRLSCEGSGFTFSSNGMHWVRQTPGKGLEWVSGIGTAGGTYYADSVKGRFTISRDNVKKSLYLQMNSLRAEDMAIYYCVRKDWGWFDPWGQGALVTVSS
VL: EIVLTQSPATLSLSPGERATLSCRASQSISSYLAWYQQKPGQAPRLLIYDASNRATGIPARFSGSGSGTDFTLTISSLEPEDFAVYYCQQRSKWPPYTFGQGTKLEIKR
With B4, binding in the assay with CHO hOPGL 140 was characterised by a dissociation constant (Kd) of 0.193 nM. Further, the binding result with E. coli mOPGL 158 [3] is “no binding”.

B5: 16E1 (antibody, V domains shown)
VH: EVQLVQSGGGLVHPGGSLRLSCAGSGFTFSGHALHWVRQAPGKGLEWVSGIGTHGGTYYADSVKGRFTISRDNAKNSLFLQMNSLSAEDMAVYYCTRRNWGQFDYWGQGTLVTVSS
VL: EIVLTQSPATLSLSPGERATLSCRASQSVSSYLAWYQQKPGQAPRLLIYDASNRATGIPARFSGSGSGTDFTLTISSLEPEDFAVYYCQQRSNWPPYTFGQGTKLEIKR
As for B5, the affinity with CHO hOPGL 140, expressed as Kd, was 0.0633 nM. In the assay with E. coli mOPGL 158 [3], the binding result is “no binding”.

B6: 22B3 (antibody, V domains shown)
VH: EVQLVQSGGGLVHPGGSLRLSCEGSGFTFSSNGMHWVRQTPGKGLEWVSGIGTAGGTYYADSVKGRFTISRDNVKKSLYLQMNSLRAEDMAIYYCVRKNWGWFDPWGQGALVTVSS
VL: EIVLTQSPATLSLSPGERATLSCRASQSVNSYLAWFQQKPGQAPRLLIYDASNRATGIPARFSGSGSGTDFTLTISSLEPEDFAIYYCQQRSNWPPFTFGQGTKLEIKR
Consider B6, for which, in the assay with CHO hOPGL 140, binding was put at a Kd of 0.0337 nM. The binding result with E. coli mOPGL 158 [3] is on record as “no binding”.
